According to patent US20140341916A1, “THERAPEUTIC COMBINATIONS AND METHODS OF TREATING MELANOMA” (Genentech, Inc., priority 2011, published 2014):

T1: ETBR (Homo sapiens, UniProt P24530)
T1 sequence (P24530 27-442): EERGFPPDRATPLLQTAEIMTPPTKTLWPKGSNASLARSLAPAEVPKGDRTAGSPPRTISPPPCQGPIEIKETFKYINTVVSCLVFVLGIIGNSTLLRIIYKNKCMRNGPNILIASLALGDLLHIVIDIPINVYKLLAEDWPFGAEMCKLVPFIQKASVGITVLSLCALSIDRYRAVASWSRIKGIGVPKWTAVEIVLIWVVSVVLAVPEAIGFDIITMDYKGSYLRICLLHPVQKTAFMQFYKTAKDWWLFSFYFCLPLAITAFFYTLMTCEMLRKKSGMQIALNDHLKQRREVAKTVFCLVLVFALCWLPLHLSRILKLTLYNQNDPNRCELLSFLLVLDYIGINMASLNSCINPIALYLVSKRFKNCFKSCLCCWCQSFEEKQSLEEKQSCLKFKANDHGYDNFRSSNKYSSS

B1: Hu5E9v1-ADC: anti-ETBR antibody Hu5E9v1 conjugated to MMAE through a vc linker (antibody drug conjugate) (conjugate)
VH: EVQLVESGGGLVQPGGSLRLSCAASGYTFTSYWMQWVRQAPGKGLEWIGTIYPGDGDTSYAQKFKGRATLSTDKSKNTAYLQMNSLRAEDTAVYYCARWGYAYDIDNWG
VL: DIQMTQSPSSLSASVGDRVTITCKSSQSLLDSDGKTYLNWLQQKPGKAPKRLIYLVSKLDSGVPSRFSGSGSGTDFTLTISSLQPEDFATYYCWQGTHFPYTFGQGTKVEIK

Columns and labels:
[1] = tested on: UACC-257X2.2 melanoma xenograft; experiment: In vivo efficacy, subcutaneous melanoma xenograft, tumor volume / % TGI; parameters: species or system mice; details: for % TGI Single Agent BRAFi vs. control / % TGI Single Agent Anti-ETBR ADC vs. control: UACC257-X2.2
Protocol: (§1) Next, efficacy studies were performed using the melanoma cells lines in the xenografts mouse models described above. All studies were conducted in accordance with the Guide for the Care and Use of Laboratory Animals (Ref: Institute of Laboratory Animal Resources (NIH publication no. 85-23), Washington, D.C.: National Academies Press; 1996). 10- to 14-week-old female CRL Nu/Nu or NCr nude mice from Charles River Laboratories were inoculated subcutaneously in the dorsal right flank with either 5×10^6 UACC-257X2.2 cells in HBSS with Matrigel or 5×10^6 A2058 cells in HBSS with Matrigel. When tumor volumes reached approximately 200 mm^3 (day 0), animals were randomized into groups of 10 each.
(§2) For single agent efficacy studies, the anti-ETBR ADC candidate Hu5E9v1-ADC was administered as a single intravenous (IV) injection on day 0 at 1 mpk, 3 mpk, or 6 mpk (mg/kg). A control ADC antibody and vehicle control were also administered. Average tumor volumes with standard deviations were determined from 10 animals per group. Tumor volumes were measured twice per week until study end.
To do this, the in vivo efficacy for various combinations of Hu5E9v1-ADC and BRAFi-945 were evaluated against the UACC-257X2.2 melanoma model described above. Tumors were grown to an average size of approximately 200 mm^3, whereupon animals were randomized into groups of 10 each. An appropriate vehicle control (Klucel LF) or BRAFi-945 at doses of 1 mpk, 6 mpk or 20 mpk were administered orally once a day×21 days beginning on study Day 0. A single 1 mpk or 3 mpk dose of Hu5E9v1-ADC or control, a histidine buffer #8, was administered intraveneously (after two doses of 945) via tail vein at study Day 1.
(§3) The average tumor volumes were determined from 10 animals per group. Tumor volumes were measured twice per week until study end. Tumor volumes were measured in two dimensions (length and width) using UltraCal IV calipers (Model 54 10 111, Fred V. Fowler Company; Newton, Mass.). The following formula was used with Excel, version 12.2.8 (Microsoft; Redmond, Wash.) to calculate tumor volume: Tumor Volume (mm3)=[…]
(§4) To analyze the repeated measurement of tumor volumes from the same animals over time, a mixed-modeling Linear Mixed Effects (LME) approach was used (Pinheiro et al. 2009). This approach can address both repeated measurements and a modest drop-out rate due to non-treatment-related termination of animals prior to study end. Cubic regression splines were used to fit a non-linear profile to the time courses of log 2 tumor volume at each dose level. These non-linear profiles were then related to dose within the mixed model. Tumor growth inhibition (TGI) as a percentage of vehicle was calculated as percent area under the fitted curve (AUC) per day in relation to the vehicle, using the following formula:
(§5) Using this formula, a TGI value of 100% indicates tumor stasis, of >1% but <100% indicates tumor growth delay, and of >100% indicates tumor regression. To get uncertainty intervals (UIs) for % TGI, the fitted curve and the fitted covariance matrix were used to generate a random sample as an approximation to the distribution of % TGI. The random sample is composed of 1000 simulated realizations of the fitted-mixed model, where the % TGI has been recalculated for each realization. Here, in the reported UI is the value for which 95% of the time, the recalculated values of % TGI will fall in this region given the fitted model. The 2.5 and 97.5 percentiles of the simulated distribution were used as the […] UIs.

[2] = tested on: UACC-257X2.2 melanoma cell line; experiment: In vitro cell killing, CellTiter-Glo cell viability; format: cell-based, human; details: UACC-257X2.2 (high ETBR copy number), 5 days
Protocol: (§6) The melanoma cell lines A2058 and UACC-257X2.2 were grown in appropriate media at 37° C. and 5% CO2. To assess the effects of Hu5E9v1-ADC on cell viability, cells were plated at 1,500 per well in 50 μL, of normal growth medium in 96-well clear-bottom black plates. Twenty-four hours later, an additional 50 μL, of culture medium with serial dilutions of Hu5E9v1-ADC concentrations was added to triplicate wells. Five days later, cell survival was determined using CellTiter-Glo Luminescent Cell Viability Reagent (G7572; Promega Corporation) and with an EnVision 2101 Mutilabel Reader (Perkin-Elmer).

A2058 melanoma cell line = experiment: as above; format: cell-based, human; details: A2058 (low ETBR copy number), 5 days
Protocol: as §6

[3] = tested on: COLO 829 melanoma xenograft; experiment: In vivo efficacy, subcutaneous melanoma xenograft, tumor volume / % TGI; parameters: species or system mice
A2058 melanoma xenograft = experiment: as above; parameters: species or system mice; details: for % TGI Single Agent Anti-ETBR ADC vs. control: A2058
Protocol: as §1, §2, §3, §4, §5
Tumors were grown to an average size of approximately 200 mm^3, whereupon animals were randomized into groups of 10 each. […] A single dose of Hu5E9v1-ADC at either 3 mpk or 6 mpk or control, a histidine buffer #8, was administered intraveneously into the tail vein on day 1 (after three doses of RG7204).
To do this, the in vivo efficacy for various combinations of Hu5E9v1-ADC and MEKi-623 and/or MEKi-973 were evaluated against A2058 and SK-MEL-23 and IPC-298 melanoma in vivo models, performed as described above in Example 4. An appropriate methylcellulose tween vehicle control (0.5% methylcellulose, 0.2% Tween-80 (MCT) or MEK inhibitor at doses of 1 mpk, 3 mpk or 7.5 mpk were administered orally once a day×21 days beginning on study Day 0. A single 3 mpk or 6 mpk dose of Hu5E9v1-ADC or control, a histidine buffer #8, was administered intraveneously (after two doses of a MEK inhibitor) via tail vein at study Day 1.

ETBR = biological target: T1, ETBR; experiment: Scatchard analysis of antibody binding sites per cell with 125I-labeled Hu5E9v1-ADC; details: 4 h on ice, estimated
Protocol: A determination of antibody binding sites per cell was performed (Scatchard analysis): The affinity constant and the number of cell surface binding sites for each antibody were estimated by incubating the melanoma cells for 4 h on ice with a fixed concentration of ^125I-labeled Hu5E9v1-ADC combined with increasing concentrations of unlabeled Hu5E9v1-ADC. The data were analyzed by nonlinear curve fitting using an analysis program method.

[4] = Anti-ETBR ADC single dose 1 mg/kg
[5] = Anti-ETBR ADC single dose 3 mg/kg

| Molecule | % TGI Single Agent BRAFi vs. control ([1]; BRAFi Qdx21 1 mg/kg) | % TGI Single Agent BRAFi vs. control ([1]; BRAFi Qdx21 6 mg/kg) | % TGI Single Agent BRAFi vs. control ([1]; BRAFi Qdx21 20 mg/kg) | cell killing by ADC titration relative to control ADC [2] | cell killing by ADC titration relative to control ADC (A2058 melanoma cell line) | % TGI Single Agent Anti-ETBR ADC vs. control [3, 4] | % TGI Single Agent Anti-ETBR ADC vs. control [3, 5] | % TGI Single Agent Anti-ETBR ADC vs. control [1, 4] | % TGI Single Agent Anti-ETBR ADC vs. control [1, 5] | single agent efficacy, tumor volume ([1]; single IV dose 1 mg/kg on day 0) | single agent efficacy, tumor volume ([1]; single IV dose of 3 and 6 mg/kg on day 0) | % TGI Single Agent Anti-ETBR ADC vs. control (A2058 melanoma xenograft; [5]) | % TGI Single Agent Anti-ETBR ADC vs. control (A2058 melanoma xenograft; Anti-ETBR ADC single dose 6 mg/kg) | single agent efficacy, tumor burden (A2058 melanoma xenograft; single IV dose 3 mg/kg) | single agent efficacy, tumor burden (A2058 melanoma xenograft; single IV dose 6 mpk, relative to matching dose of control ADC or vehicle) | number of Hu5E9v1-ADC binding sites (ETBR; A2058 cells) | number of Hu5E9v1-ADC binding sites (ETBR; UACC-257X2.2 cells) |
| --- | --- | --- | --- | --- | --- | --- | --- | --- | --- | --- | --- | --- | --- | --- | --- | --- | --- |
| Nc1ncnc2c(C(=O)Nc3c(Cl)ccc(NS(=O)(=O)CCCF)c3F)csc12 [BRAFi-945, 4-amino-N-(6-chloro-2-fluoro-3-(3-fluoropropylsulfonamido)phenyl)thieno[3,2-d]pyrimidine-7-carboxamide] | 66% | 109% | 136% |  |  |  |  |  |  |  |  |  |  |  |  |  |  |
| B1 |  |  |  | specific cell killing relative to control ADC | specific cell killing relative to control ADC | 31% | 33% | 69% | 112% | efficacy was not apparent | sustained tumor regression | 39% | 85% | Efficacy was not apparent | partial reduction in tumor burden | 1,582 sites per cell | 33,939 sites per cell |
